Laboratory results taken from patent publication US20190359693A1.

Tests used:
Assay in all cases: cell-based or functional assay
[1] = target: HA of H1N1 A/New Caledonia/20/1999 (influenza A virus)
[2] = target: HA of H5N1 A/Vietnam/1194/04 (influenza A virus)
[3] = target: HA of H3N2 A/Brisbane/10/2007 (influenza A virus)
[4] = target: HA of H7N3 A/NIBRG/60 (A/mallard/NL/12/00) (influenza A virus)
[5] = target: hemagglutinin (HA) of influenza A/New Caledonia/20/99 (H1N1) (influenza A virus A/New Caledonia/20/99 (H1N1))
[6] = target: hemagglutinin (HA) of influenza A/Vietnam/1194/04 (H5N1) (influenza A virus A/Vietnam/1194/04 (H5N1))
[7] = target: hemagglutinin (HA) of influenza A/Brisbane/10/07 (H3N2) (influenza A virus A/Brisbane/10/07 (H3N2))
[8] = target: hemagglutinin (HA) of influenza A/New York/107/03 (PR8) (influenza A virus A/New York/107/03 (PR8))
[9] = target: hemagglutinin (HA) of influenza virus H5N1 A/Vietnam/1194/04 (influenza A virus)
[10] = target: hemagglutinin (HA) of influenza virus H7N3 A/NIBRG/60 (A/mallard/Netherlands/12/00) (influenza A virus)
[11] = target: hemagglutinin (HA) of influenza virus H3N2 A/Brisbane/10/07 (influenza A virus)

B1: SD1071 (VHH)
VHH: EVQLVESGGGLVQTGESLRLSCAFSGFTYSTYWMYWVRQGPEKGLKWVSSTNAAGTVTYYAANVRDRFTASKDNAKNTLYLQMNRLKPEDTGLYYCASKDGLIVAATLDDYDYRGQGTQVTVSS
[1]
  VNA titer: 1260 nM
[2]
  VNA titer: 111 nM
[3]
  VNA titer: > 1000 nM
[4]
  VNA titer: > 1000 nM

B2: SD1027 (VHH)
VHH: EVQLVESGGGMVQAGGSLRLSCAASGGTFSLYHMGWFRQAPGEEREFVAAISGSGGNTYYADSVKGRFTISRDNNKNTVYLQMSSLEPEDTAVYFCAAMKWPGILRDANAYDYWGQGTQVTVSS
[1]
  VNA titer: 862 nM
[2]
  VNA titer: > 1000 nM
[3]
  VNA titer: > 1000 nM
[4]
  VNA titer: > 1000 nM

B3: SD1074 (VHH)
VHH: EVQLVESGGGLVQAGGSLRLSCAASRNFDAIGAMGWYRQAPGKQRELVAEITSDGSTNYTDSVKGRFTISRDNALRTMYLQMNALEPEDTAVYYCKADISIYGLTNFPYWGQGTQVTVSS
[1]
  VNA titer: 113 nM
[2]
  VNA titer: 638 nM
[3]
  VNA titer: > 1000 nM
[4]
  VNA titer: > 1000 nM

B4: SD1018 (VHH)
VHH: EVQLVESGGGLVQAGGSLRLSCAASGQTYHMGWFRQTPGNERESVAAVTWSGAVTRYADSVKGRFTISRDNAKNTVYLQMNSLVPEDTAIYYCAATRSMAPIIQLSPGSYDYWGPGTQVTVSS
[1]
  VNA titer: > 1000 nM
[2]
  VNA titer: 615 nM
[3]
  VNA titer: > 1000 nM
[4]
  VNA titer: > 1000 nM

B5: SD3014 (VHH)
VHH: EVQLVESGGGVVQPGGSLRLSCAASISIFDIYAMDWYRQAPGKQRELVAVSFRDGSTYYADSVKGRFTISRDNSKNTLYLQMNSLRAEDTAVYLCHVSLYRDPLGVAGGMGVYWGKGALVTVSS
[5]
  VNA IC50: 3 nM
[6]
  VNA IC50: 11 nM

B6: SD3031 (VHH)
VHH: EVQLVESGGGLVQPGGSLRLSCAVSISIFDIYAMDWYRQAPGKQRDLVATSFRDGSTNYADSVKGRFTISRDNAKNTLYLQMNSLKPEDTAVYLCHVSLYRDPLGVAGGVGVYWGKGALVTVSS
[7]
  VNA IC50: > 1000 nM
[5]
  VNA IC50: 37 nM
[6]
  VNA IC50: 51 nM

B7: SD3078 (VHH)
VHH: EVQLVESGGGVVQPGGSLRLSCAASISIFDIYAMDWYRQAPGKQRELVSVSFRDGSTYYADSVKGRFTISRDNSKNTLYLQMNSLRAEDTAVYYCHVSLYRDPLGVAGGLGVYWGQGTLVTVSS
[7]
  VNA IC50: 632 nM
[5]
  VNA IC50: 8 nM
[6]
  VNA IC50: 20 nM

B8: SD3032 (VHH)
VHH: EVQLVESGGGLVQPGGSLRLSCAVSISIFDIYAMDWYRQAPGKQRDLVATSFRDGSTNYADSVKGRFTISRDNAKNTLYLQMNSLKPEDTAVYLCHVSLYRDPLGVAGGAGVYWGKGALVTVSS
[5]
  VNA IC50: > 500 nM
[6]
  VNA IC50: > 500 nM

B9: SD3017 (VHH)
VHH: EVQLVESGGGVVQPGGSLRLSCAASISIFDIYAMHWYRQAPGKQRELVATSFRDGSTYYADSVKGRFTISRDNSKNTLYLQMNSLRAEDTAVYLCHVSLYRDPLGVAGGMGVYWGKGALVTVSS
[5]
  VNA IC50: 4 nM
[6]
  VNA IC50: 11 nM

B10: SD3016 (VHH)
VHH: EVQLVESGGGVVQPGGSLRLSCAASISIFDIYAMDWYRQAPGKQRELVAVSFRDGSTYYADSVKGRFTISRDNSKNTLYLQMNSLRPEDTAVYLCHVSLYRDPLGVAGGMGVYWGKGALVTVSS
[5]
  VNA IC50: 3 nM
[6]
  VNA IC50: 8 nM

B11: SD3018 (VHH)
VHH: EVQLVESGGGVVQPGGSLRLSCAASISIFDIYAMHWYRQAPGKQRELVAVSFRDGSTYYADSVKGRFTISRDNSKNTLYLQMNSLRAEDTAVYLCHVSLYRDPLGVAGGMGVYWGKGALVTVSS
[5]
  VNA IC50: 6 nM
[6]
  VNA IC50: 8 nM

B12: SD3020 (VHH)
VHH: EVQLVESGGGVVQPGGSLRLSCAASISIFDIYAMHWYRQAPGKQRELVAVSFRDGSTYYADSVKGRFTISRDNSKNTLYLQMNSLRPEDTAVYLCHVSLYRDPLGVAGGMGVYWGKGALVTVSS
[5]
  VNA IC50: 4 nM
[6]
  VNA IC50: 15 nM

B13: SD3033 (VHH)
VHH: EVQLVESGGGLVQPGGSLRLSCAVSISIFDIYAMDWYRQAPGKQRDLVATSFRDGSTNYADSVKGRFTISRDNAKNTLYLQMNSLKPEDTAVYLCHVSLYRDPLGVAGGFGVYWGKGALVTVSS
[5]
  VNA IC50: 51 nM
[6]
  VNA IC50: 316 nM

B14: SD3019 (VHH)
VHH: EVQLVESGGGVVQPGGSLRLSCAASISIFDIYAMHWYRQAPGKQRELVSVSFRDGSTYYADSVKGRFTISRDNSKNTLYLQMNSLRAEDTAVYLCHVSLYRDPLGVAGGMGVYWGKGALVTVSS
[5]
  VNA IC50: 4 nM
[6]
  VNA IC50: 8 nM

B15: SD3080 (VHH)
VHH: EVQLVESGGGVVQPGGSLRLSCAASISIFDIYAMDWYRQAPGKQRELVAVSFRDGSTYYADSVKGRFTISRDNSKNTLYLQMNSLRPEDTAVYYCHVSLYRDPLGVAGGLGVYWGQGTLVTVSS
[7]
  VNA IC50: 632 nM
[5]
  VNA IC50: 5 nM
[6]
  VNA IC50: 16 nM

B16: SD3015 (VHH)
VHH: EVQLVESGGGVVQPGGSLRLSCAASISIFDIYAMDWYRQAPGKQRELVSVSFRDGSTYYADSVKGRFTISRDNSKNTLYLQMNSLRAEDTAVYLCHVSLYRDPLGVAGGMGVYWGKGALVTVSS
[5]
  VNA IC50: 3 nM
[6]
  VNA IC50: 6 nM

B17: SD3089 (VHH)
VHH: EVQLVESGGGVVQPGGSLRLSCAASISIFDIYAMHWYRQAPGKQRELVSVSFRDGSTYYADSVKGRFTISRDNSKNTLYLQMNSLRAEDTAVYYCHVSLYRDPLGVAGGLGVYWGQGTLVTVSS
[7]
  VNA IC50: 1190 nM
[5]
  VNA IC50: 3 nM
[6]
  VNA IC50: 20 nM

B18: SD1035 (VHH)
VHH: EVQLVESGGGLVQAGGTLRLSCAASGSAVSISRMAWYRQAPGKQRELVADIFSGGGTNYADSVKGRFTISRDNAKNTVDLQMNSLKPEDTAVYYCSARSAVAAIHWDQYDYWGQGTQVTVSS
[1]
  VNA titer: 74.8 nM
[4]
  VNA titer: > 1000 nM

B19: SD3096 (VHH)
VHH: EVQLLESGGGLVQPGGSLRLSCAASGRTYAMGWFRQAPGKEREFVAHINALGTRTYYADSVKGRFTISRDNSKNTVYLQMNSLRPEDTAVYYCTAQGQWRAAPVAVAAEYEFWGQGTLVTVSS
[8]
  VNA IC50: 5 nM
[7]
  VNA IC50: 26 nM

B20: SD3098 (VHH)
VHH: EVQLLESGGGLVQPGGSLRLSCAASGRTYAMGWFRQAPGKEREFVAAINALGTRTYYADSVKGRFTISRDNSKNTLYLQMNSLRPEDTAVYYCTAQGQWRAAPVAVAAEYEFWGQGTLVTVSS
[8]
  VNA IC50: 16 nM
[7]
  VNA IC50: 4 nM

B21: SD1072 (VHH)
VHH: EVQLVESGGGLVEAGGSLRLSCAVSGRTFSMYATGWFRQAPGKEREFVAAINSSGDKTTYADSVEGRFTISRDIGTVYLQMNNLNPEDTAVYYCAAARTLAVVTIPGGYEYWGQGTQVTVSS
[1]
  VNA titer: 78.5 nM
[2]
  VNA titer: 444 nM
[3]
  VNA titer: > 1000 nM
[4]
  VNA titer: > 1000 nM

B22: MD2307 (bispecific antibody)
chain: EVQLVESGGGLVQPGGSLRLSCAATGFTLENKAIGWFRQTPGSEREGVLCISKSGSWTYYTDSMRGRFTISRDNAENTVYLQMDSLKPEDTAVYYCATTTAGGGLCWDGTTFSRLASSWGQGTQVTVSSGGGGSGGGGSEVQLVESGGGLVQAGDSLRISCAASGRTLSIYSMGWFRQAPGKEREFVATIGWNSGRTFYPDSLKGRFTISRDNARNTLYLQMNNLRPEDTAVYYCAAAKGPLRLSSQADYWGQGTQVTVSSGGGGSGGGGSEVQLVESGGGLVQAGDSLRLSCAASGPTFGMSAMGWFRQAPGKEREFVAAISGLGNPNYSDDVKGRFTISRENGRNTVYLQMNSLKPEDTAVYYCAQRKVYHVQGGDRPQAYDYWGQGTQVTVSS
[9]
  average neutralization titer: 21.6 nM
[10]
  average neutralization titer: 18.1 nM
[11]
  average neutralization titer: 30.4 nM

B23: SD1047 (VHH)
VHH: EVQLVESGGGLVQAGGSLRISCAASGRTYAMAWFRQAPGKEREFVAHINALGTRTYYSDSVKDRFTISRDNAKNTEYLQMNSLKPEDTAVYYCVAGGQWRAAPVAAAESYDFWGQGTQVTVSS
[2]
  VNA titer: > 1000 nM
[4]
  VNA titer: 510 nM

B24: SD3067 (VHH)
VHH: EVQLVESGGGLVQPGGSLRLSCAASGRTLSIYSMGWFRQAPGKEREFVATIGWNSGRTFYPDSLKGRFTISRDNSKNTLYLQMNSLRAEDTAVYYCAAAKGPLRLSSQADYWGQGTLVTVSS
[8]
  VNA IC50: 16 nM
[7]
  VNA IC50: 3 nM

B25: SD3068 (VHH)
VHH: EVQLVESGGGLVQPGGSLRLSCAASGRTLSIYSMGWFRQAPGKEREFVSTIGWNSGRTFYPDSLKGRFTISRDNSKNTLYLQMNSLRAEDTAVYYCAAAKGPLRLSSQADYWGQGTLVTVSS
[8]
  VNA IC50: 26 nM
[7]
  VNA IC50: 4 nM
